In US20230027739A1, “ANTIGEN-BINDING AND ANTIGEN D[…]” (Entrada Therapeutics, Inc., priority 2021, published 2023):

Target: KRas in human cancer cell lines with KRas mutations (HCT-116, SW480, LS180, LS174T) (human), P01116
Test: cell-based or functional assay

B1: K19-Cys-EEV12 (designed binder)
chain: MHHHHHHENLYFQGDLGKKLLEAARAGQDDEVRILMANGADVNASDRWGWTPLHLAAWWGHLEIVEVLLKRGADVSAADLHGQSPLHLAAMVGHLEIVEVLLKYGADVNAKDTMGATPLHLAARSGHLEIVEELLKNGADMNAQDKFGKTTFDISTDNGNEDLAEILQKLC
modifications: not checked
- IC50 of cell viability (CellTiter-Glo, 72 h) on KRas mutant cell lines: 2 to 8 µM
